According to the DeepSol protein solubility set:

Experiment: soluble on expression in E. coli; label from the status in PepcDB or PDB records

| Sequence | soluble on expression in E. coli |
| --- | --- |
| IGDWGYSVSANLTTIKNKVKSLVQDGYSIIAGDKQQSYTMAGYPIGFFYGYKVAGVYQSQADIDASPENTLATVTPGDLKFADVNRDGKITPEDRTMIGNPTPDFTYGLSLGVNYKNWSLGIDMMGQHGNEIFRTWDNYNFAQFNYLSQRMDRWHGEGTSNSQPLLNSKHSINNLNSEYYIEDGSFFRIRNVQLAYSFDKALLAKIRLQALKVYVNIQNLKTWKHNTGYTPELGGSATTFGVDDGSYPVPAVYTFGINLTF | not soluble |
| MLGACVEKPSTLERVKEDGVLRVVTRNSPATYFQDRNGETGFEYELVKRFADDLGVELKIETADNLDDLFDQLGQPKGPVLAAAGLVSSEQRKQQVRFSHPYLEVTPQVIYRNGRSRPTTAQDLVGKHIMVLKGSTHAEQLAELKLKYPGIEYEESDAVEVVDLLRMVDEGQIDLTLVDSNELAMNQVYFPNVRVAFDLGDARSQSWAVAAGDDNSLLNEINSFLDKVEKNGTLQRLKDRYYGHVDVLGYVGAYTFAQHLQQRLPKYEKHFKASAKQEKLDWRLLAAVGYQESMWQAEVTSKTGVRGLMMLTQNTAQAMGVSNRLDPKQSISGGAKYLAYIKEQLDDKIEEPDRTWFALAAYNVGTGHLDDARKLAEKEGLNPNKWLDVKKMLPRLSQKQWYSKTRYGYARGGEPVHFVANIRRYYDILTWVTQPQLEGDQVAEGNLHVPGVNKTKPPEENPPLLEHHHHHH | soluble |
| GPGSMSMNVYKRQEKLRLYRALLKGANRFPLRSRREIVTEEVRGAFRHPLNDSLTTKEVDYKLLLGWERAAAIQTYAENMYWFHSRDEVSREMMHHSLERDRQRIREMERCNAVGNAEIKTPEVTEFKSSMYHVHPDYHGKIGQMPLTHSRDIWRARGQYGSDVGGPRQKFYVRRFKALFPQGW | not soluble |
| MFDLPVETEEQRRNYRIFRKELIQEGFVMIQYSIYVRVCPSREFANRIENRIKKNLPLEGNVRLLCVTEKQYDDMKLLVGSRQTSETAIGTERLIIILEHHHHHH | not soluble |
| MGSDKIHHHHHHMTQEMILANATLILAGETRTGCVKISDSVIADIADGSSVPAGAVDLEGDFLSPGLVELHTDNLERHIEPRPGVDWPHAAALVAHDAELASTGITTVFDAMRVGSIPSGKGRYIKYARQLASEMLDLRTKDMLKISHFLHLRAEVCSETLAEELAEFTAEDRVGLVSLMDHTPGQRQFRDIAKLEQYVKSKRGMSDEEFINHVAQLKDLRARFGDLHEATTVAEAARFGAVLASHDDTTADQVQTSAGHGIRLAEFPTTVEAARACHAHGIKVMMGAPNLIRGGSHSGNVAARELADLELLDIVSSDYIPAALLQAAVKLGEIWGDLARGMATVTAAPAASVGLTDRGVLEVGKRADLIRFRTREGVPMLRAVYSRGARVA | not soluble |
| MGHHHHHHSHMVETVSTKNTKNWHAPVVPAAWEAEAGESLEPWRWRLQWAGIASLHSSLGDRARLRLKKKKKKRKGHFPIQKSRKYVPFLKGICSSTPVGISRQVGQETEKRNKTQRQSIEKERGAQGTGALSLRGPAGALVSEFPQYLLIIIFTILARGV | not soluble |
| MGSDKIHHHHHHAAPGDLQEKLAALKGISGIEKLQSDYYPEKYVVRITQQVDPKDPAAGTFTQRVIVGHVGYDRPTIIVTEGYGAAYALNPKYQEELSKLLNANLVFVEYRYFLESTPEPKNWDYLTAENSAYDLHNVRNTFKQIYPGKWISTGISKGGQTTMLYRAFFPDDVDFSVPYVGPLCKGVEDGRHEPFLRKVGTKAEREKIQDFQLEVLKRKSDMLPLLESYCKNKNLTFRIPMPEVLDYCVLEYSFALWQWGTSVSTIPSKSADDQALFDHLMEISGPDYFAENQPNISFFVQAARELGYYGYDVKPFKKYLTIDSAHGYLNRIMLPEELVGKVDFRPALYHKIYNFLKDNDPKMIFIYGEIDPWSAAMVPAFKGKKNEQIYIQPRGSHRARIGNMPEDMKERILTQMNKWLAE | not soluble |
| MGSDKIHHHHHHMNFLKKEPFKIFSMIYLLLDTITNRAGTERAVINLANNLHANGHRVSLVSVCTKEGEPSFQVEKGIEVHHLGIRLYGNALARKTVYFKAYRRIKALYKKREPVLLIGTNIFINTILSQISNRGRIFTIGCEHISYDIARPITKRIRGFLYSGLDAVVALTKRDQQSFEAILRGRSKAYVIPNQVSFTTVQRDATTHKQMLAIGRLTYQKGFEFMIEDASRVLRERPDWKLIIVGDGENESMLRKEIASRNMESQIEIHPSTPEIRKYYESSAIYLMTSRFEGLPMVLLEAEAYALPIISYDCPTGPRELIENGRNGFLVPMEAHEDFADKLRLLMDDETLRKKMGQESELMVKSYSPANIYECWKKLFVEIGYMN | not soluble |
| MMDASKELQVLHIDFLNQDNAVSHHTWEFQTSSPVFRRGQVFHLRLVLNQPLQSYHQLKLEFSTGPNPSIAKHTLVVLDPRTPSDHYNWQATLQNESGKEVTVAVTSSPNAILGKYQLNVKTGNHILKSEENILYLLFNPWCKEDMVFMPDEDERKEYILNDTGCHYVGAARSIKCKPWNFGQFEKNVLDCCISLLTESSLKPTDRRDPVLVCRAMCAMMSFEKGQGVLIGNWTGDYEGGTAPYKWTGSAPILQQYYNTKQAVCFGQCWVFAGILTTVLRALGIPARSVTGFDSAHDTERNLTVDTYVNENGEKITSMTHDSVWNFHVWTDAWMKRPDLPKGYDGWQAVDATSQERSQGVFCCGPSPLTAIRKGDIFIVYDTRFVFSEVNGDRLIWLVKMVNGQEELHVISMETTSIGKNISTKAVGQDRRRDITYEYKYPEGSSEERQVMDHAFLLLSSEREHRRPVKENFLHMSVQSDDVLLGNSVNFTVILKRKTAALQNVNILGSFELQLYTGKKMAKLCDLNKTSQIQGQVSEVTLTLDSKTYINSLAILDDEPVIRGFIIAEIVESKEIMASEVFTSFQYPEFSIELPNTGRIGQLLVCNCIFKNTLAIPLTDVKFSLESLGISSLQTSDHGTVQPGETIQSQIKCTPIKTGPKKFIVKLSSKQVKEINAQKIVLITK | soluble |
| MSDGSMDDDGRLFPDLGSSTHDNREIRVRFLNRCAYPVDVFWLNPSKQPTKYGTLAQKKYLDIKTFKDHPWVARRSFDGCKVLVNEKEVFWPEPAPRMNLIVRNHCVITMKVQSLREIAGRSFLRHNPTEVPNKIKGLPRELQFEVKHFLDRKQEYSEIVCRSIPPPGPQRPQQ | not soluble |
| MISILRRGLLVLLAALPLLANAASTPSAHDLVQDTTTRLLADLAANKEKYKQSPNDFYNALNSIVGPVVDADGISRSIMTVKYSRKATPEQMVRFQENFKRSLMQFYGNALLEYNNQGITVSPAKDESGTRTSVDMQVKGNNGAIYPVSYTLEKINDEWKVRNVIINGINIGKLFRDQFADAMQRNGNNLDKTIDGWAGEVAKAKEVTEDAAQKAAQLEHHHHHH | soluble |
| MGSDKIHHHHHHMANNIQGFVMIGAQAIVFSITNLRTLKTIERGRYPVAIGDDFYAEHEILPDTVDAIVQAFDAINQIFKDYGVPTVNVFASTSWAEADNAEFVRDQLYTRTGWLIKTTSLSEEAFFRTQAIMVKFPQFKSITQKGTVLIDISSGSVELTTFSNGVFGFSRNLSLGPLRVYEIMSDVQRSVTNYVEVMRDYIDSRLLDFMRLLPQGVEYTNMILMGSNLSIFQNIIPEGKHQVETDRPGFDLLYDEVTKASDQYLADTYDLTSDQTSLVLPTVLLVYRLVETLNSQSIWISDLKAIDGIEVNAAHEGGFKKLGFDPNEEIVISANNLAERYQVDEAHMQATRTVALQLFDRLKKLHGMGKRERLLLEVAATVSDIGSYIETHKHYAHSNYIIKASEIMGLNDLEVTMVATITRFHSSITPQSDLKNFPTMSTENRLVVAKLSALLRVADSLDASRQQKIQQLRVSVKPNEVLLTARADDDIELERWTLARKGKFFSEVFGLGLELKGRNIL | not soluble |
| MTAPSQVLKIRRPDDWHVHLRDGDMLKTVVPYTSEIYGRAIVMPNLASPITTVDAAIAYRQRILDAVPAGHDFTPLMTCYLTDSLDADELERGFHEGVFTAAKLYPANATTNSSHGVTSVDAIMPVLERMEKLGIPLLVHGEVTHADVDIFDREARFIDTVMEPLRQRLTALKVVFEHITTKDAAQYVRDGNDYLAATITPQHLMFNRNDMLVGGIRPHLYCLPILKRNIHQQALRELVASGFTRAFLGTDSAPHSRHRKETSCGCAGCFNAPSALGSYAAVFEEMNALAHFEAFCSLNGPQFYGLPMNTGWVELVRDEQQIPGNIALADDSLVPFLAGETVRWSVKK | not soluble |
